T1: mCD1d (Mus musculus, UniProt P11609)
T1 sequence (P11609 22-305 limits assumed): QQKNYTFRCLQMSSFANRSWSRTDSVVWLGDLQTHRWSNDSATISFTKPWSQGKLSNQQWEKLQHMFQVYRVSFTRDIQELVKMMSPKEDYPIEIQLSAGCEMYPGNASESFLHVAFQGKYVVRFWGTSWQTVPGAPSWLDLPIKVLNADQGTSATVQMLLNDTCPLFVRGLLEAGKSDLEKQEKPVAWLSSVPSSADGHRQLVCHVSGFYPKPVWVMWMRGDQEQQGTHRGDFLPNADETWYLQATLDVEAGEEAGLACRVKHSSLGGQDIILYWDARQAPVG
T1 sequence (P01887 21-119 partner): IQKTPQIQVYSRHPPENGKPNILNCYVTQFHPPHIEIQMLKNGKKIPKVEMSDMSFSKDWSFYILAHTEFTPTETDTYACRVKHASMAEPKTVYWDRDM

B1: saposin D: recombinant purified human saposin D (protein, UniProt P07602 405-486, looked up)
Saposin-D: DGGFCEVCKKLVGYLDRNLEKNSTKQEILAALEKGCSFLPDPYQKQCDQFVAEYEPVLIEILVEVMDPSFVCLKIGACPSAH
modifications: Saposin-D
B2: saposin C: recombinant purified human saposin C (protein, UniProt P07602 311-390, looked up)
Saposin-C: SDVYCEVCEFLVKEVTKLIDNNKTEKEILDAFDKMCSKLPKSLSEECQEVVDTYGSSILSILLEEVSPELVCSMLHLCSG
modifications: Saposin-C
B3: saposin A: recombinant purified human saposin A (protein, UniProt P07602 60-142, looked up)
Saposin-A: SLPCDICKDVVTAAGDMLKDNATEEEILVYLEKTCDWLPKPNMSASCKEIVDSYLPVILDIIKGEMSRPGEVCSALNLCESLQ
modifications: Saposin-A
B4: Saposin B: recombinant purified human saposin B, lipid transfer protein (protein, UniProt P07602 195-273, looked up)
Saposin-B: GDVCQDCIQMVTDIQTAVRTNSTFVQALVEHVKEECDRLGPGMADICKNYISQYSEIAIQMMMHMQPKEICALVGFCDE
modifications: Saposin-B
notes: recombinant purified human saposin B, lipid transfer protein

Tests used:
[1] = test system: iNKT cells; test: In vivo activation of iNKT cells by i.p. glycolipid injection; serum cytokines by capture ELISA; conditions: C57BL/6 mice, i.p. 4 nmoles
Excerpt: (§1) Figure 1 Synthetic Analogs of αGalCer (A) Structures and nomenclature of iNKT cell-activating αGalCer analogs used in this study. The nomenclature used in most cases is based on the identity of the amide-linked acyl group in the ceramide moiety. Acyl carbon chain length and number of unsaturations are indicated by the names of most analogs, with exceptions being OCH (which has a C24 saturated acyl chain) and the compounds with amide-linked prostaglandin B1 (PGB1) or 4-fluorophenyl acetate (4FPA) groups. The phytosphingosine base is 18 carbons in length for all analogs except OCH, which has a nine-carbon base. (B) Hybridoma DN3A4.1-2 (Vβ8.2^+) was stimulated with each of the αGalCer analogs at a range of concentrations with JAWS II cells as APCs, and the amounts of IL-2 production were analyzed. Potencies of glycolipids are shown as 1/EC50 (as defined in Figure S1). […] Concentrations of IFN-γ, IL-4, and IL-12p70 were determined in serum by capture ELISA. “ND” stands for not detected. […]
(§2) For in vitro stimulation, murine iNKT hybridomas at 5 × 10^4 cells/well in 96-well plates were stimulated with an equal number of either JAWS II cells or transfected A20 cells in complete medium with glycolipids for 12 hr at 37°C, and levels of murine IL-2 secretion were determined. […] Subsequently the levels of IL-4, IL-13, and IFN-γ in culture supernatants were quantified by capture ELISA. […]

[2] = test system: BALB/c splenocytes; test: Mouse splenocyte stimulation with glycolipids, IL-4, IL-13 and IFN-γ in supernatants; assay type: cell-based; conditions: 48 hr
Excerpt: as §1, §2

[3] = molecular target: T1, mCD1d; test: In vitro CD1d loading assay with immobilized mCD1d, saposins or Triton X-100, DN32.D3 hybridoma IL-2 readout; assay type: biochemical; conditions: saposin 10 μg/ml, glycolipid αGalCer-C26:0
Method: Figure 5 Lack of Detergent-like Cofactor Dependence of Th2 Cell-Type Cytokine-Biasing αGalCer Analogs (A) Glycolipids were incubated for 24 hr at 37°C with murine CD1d proteins in the absence (top row) or presence (bottom row) of 0.05% Triton X-100. The resulting complexes were assembled as tetramers and used for staining mouse iNKT hybridoma DN3A4.1-2. The dashed line histograms show background staining with unloaded tetramers, and the bold histograms show staining with glycolipid loaded tetramers. (B) The same analysis as in (A) except with human CD1d tetramers, which were also used for DN3A4.1-2 staining. (C) Glycolipids at various concentrations were incubated with immobilized mCD1d protein for 2 hr in pH 7.0 or pH 5.0 buffers with no additives (medium) or in the same buffers containing the indicated purified recombinant saposins (10 μg/ml) or Triton X-100 (0.05%). After washing, DN32.D3 iNKT hybridoma cells were added and supernatant concentrations of IL-2 were determined after an additional 14 hr of incubation. All results shown (A, B, and C) were representative of at least two independent experiments.
To extend these observations to a more physiological model, we tested the effects of purified recombinant saposin A, B, C, and D proteins on loading of αGalCer analogs.
Recombinant murine CD1d proteins at 4 μg/ml in 50 μl PBS were coated on the surfaces of microtiter plate wells for 2 hr at 37°C and then washed with PBS for removal of unbound proteins. Subsequently, various concentrations of glycolipids in 0.1 M sodium phosphate buffer (pH 7.0) or 0.1 M sodium citrate buffer (pH 5.0) containing 150 mM NaCl were incubated with or without 0.05% Triton X-100 or recombinant purified human saposins A, B, C, or D at 10 μg/ml for another 2 hr at 37°C. Saposins were produced and purified as described ([Yuan et al., 2007]). After extensive washing with PBS and media, 5 × 10^4 murine iNKT hybridoma DN32.D3 cells were added in 200 μl of complete medium and incubated at 37°C for 14 hr. Supernatants were analyzed for murine IL-2 by capture ELISA.

| Molecule | activity in vivo (serum cytokines) [1] | Th2 cell-type cytokine bias (ratios of IL-13 or IL-4 to IFN-γ) [2] | activity of purified saposin in enabling loading of αGalCer-C26:0 onto mCD1d [3] |
| --- | --- | --- | --- |
| CCCCCCCCCCCCCCC(O)C(O)C(COC1OC(CO)C(O)C(O)C1O)NC(=O)Cc1ccc(F)cc1 (stereo not drawn) [αGalCer-4FPA] | minimal activity in vivo | pronounced Th2 cell-type biasing effect in vitro |  |
| B1 |  |  | minimal or no activity |
| B2 |  |  | minimal or no activity |
| B3 |  |  | minimal or no activity |
| B4 |  |  | strongly active |

Reference: PMC2719696, “Kinetics and Cellular Site of Glycolipid Loading Control the Outcome of Natural Killer T Cell Activation” (Immunity, 2009)
